Assay results as given in PMC3869376, “Inflammation produces catecholamine resistance in obesity via activation of PDE3B by the protein kinases IKKε and TBK1” (eLife, 2013).

Target: T1, HA-PDE3B (human) phosphorylated by co-expressed Flag-TBK1 (human, UniProt Q13370 1-1112, phosphorylated by co-expressed TBK1; serines 22, 299, 318, 381, 463, 467 and 503 found phosphorylated by LC-MS/MS (HA-PDE3B from Cos-1 cells))
T1 construct: Phosphodiesterase 3B (PDE3B), human cDNA (from Dr Morris Birnbaum); The phosphorylation sites were mapped in Cos-1 cells; also called phosphorylated PDE3B; the wild-type protein; source: HEK293T, transfected together with Flag-TBK1, in lysate; immunoprecipitated for the overlay
T1 sequence (Q13370 whole entry): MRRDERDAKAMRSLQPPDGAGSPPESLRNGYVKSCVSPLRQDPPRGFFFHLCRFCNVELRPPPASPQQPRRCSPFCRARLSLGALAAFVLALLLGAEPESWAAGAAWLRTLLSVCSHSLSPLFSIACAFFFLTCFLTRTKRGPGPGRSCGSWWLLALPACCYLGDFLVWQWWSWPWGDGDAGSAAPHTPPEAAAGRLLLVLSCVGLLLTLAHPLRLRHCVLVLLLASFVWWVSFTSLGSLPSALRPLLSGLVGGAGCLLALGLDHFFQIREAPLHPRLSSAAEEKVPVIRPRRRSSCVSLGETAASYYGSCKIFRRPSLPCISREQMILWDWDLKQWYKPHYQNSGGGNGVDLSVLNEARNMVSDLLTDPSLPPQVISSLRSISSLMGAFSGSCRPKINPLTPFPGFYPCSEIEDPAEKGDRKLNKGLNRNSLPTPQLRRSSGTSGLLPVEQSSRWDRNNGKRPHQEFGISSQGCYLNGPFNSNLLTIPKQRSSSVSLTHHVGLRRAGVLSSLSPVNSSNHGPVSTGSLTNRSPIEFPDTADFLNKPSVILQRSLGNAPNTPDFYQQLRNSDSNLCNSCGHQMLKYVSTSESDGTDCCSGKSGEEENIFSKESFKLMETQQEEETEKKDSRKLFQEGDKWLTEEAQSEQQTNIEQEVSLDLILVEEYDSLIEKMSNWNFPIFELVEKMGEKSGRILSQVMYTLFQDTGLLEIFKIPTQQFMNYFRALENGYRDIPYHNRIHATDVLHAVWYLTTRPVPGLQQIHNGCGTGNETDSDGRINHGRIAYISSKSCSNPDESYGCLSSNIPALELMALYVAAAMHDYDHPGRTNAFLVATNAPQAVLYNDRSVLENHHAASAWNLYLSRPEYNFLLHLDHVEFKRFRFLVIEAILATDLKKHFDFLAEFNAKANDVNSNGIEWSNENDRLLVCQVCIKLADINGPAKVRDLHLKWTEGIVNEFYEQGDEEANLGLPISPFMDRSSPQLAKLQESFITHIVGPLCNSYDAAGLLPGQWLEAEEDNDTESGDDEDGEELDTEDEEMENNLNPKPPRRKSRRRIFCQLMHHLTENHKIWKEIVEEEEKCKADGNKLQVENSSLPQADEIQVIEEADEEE
Test: pull-down; GST or GST-14-3-3β on glutathione beads incubated 1.5 hr at 4°C with cleared lysates of HEK293T cells co-expressing HA-PDE3B and Flag-TBK1 or K38A; PD buffer 15 mM Tris pH 7.5, 150 mM NaCl, 0.5% NP-40, 1 mM DTT
Details: one partner purified

binding result: binds
B1: GST-14-3-3β fusion protein (natural protein, human, UniProt P31946 1-246, looked up)
chain: MTMDKSELVQKAKLAEQAERYDDMAAAMKAVTEQGHELSNEERNLLSVAYKNVVGARRSSWRVISSIEQKTERNEKKQQMGKEYREKIEAELQDICNDVLELLDKYLIPNATQPESKVFYLKMKGDYFRYLSEVASGDNKQTTVSNSQQAYQEAFEISKKEMQPTHPIRLGLALNFSVFYYEILNSPEKACSLAKTAFDEAIAELDTLNEESYKDSTLIMQLLRDNLTLWTSENQGDEGDAGEGEN
modifications: DIG-labelled (DIG-NHS) in the overlay assay only
notes: 14-3-3β, human cDNA (from Dr Ken Inoki) subcloned into pGEX-4T-1; source: eluted with glutathione for the overlay
